Assay results published in paper PMC5529588.

How the values were obtained:
[1] = target: microtubules (porcine brain tubulin, taxol-stabilized) (porcine) (UniProt P02550); assay: co-sedimentation; high-speed cosedimentation; 1 uM tubulin (MTs) with 1-12 uM FH1FH2; bound against free protein fitted with a hyperbolic function; methods in the supplement
[2] = target: actin filaments (rabbit muscle actin, polymerized) (rabbit) (UniProt P68135); assay: co-sedimentation; high-speed cosedimentation; 3 uM actin (AFs) with 0.25-8 uM FH1FH2; bound against free protein fitted with a hyperbolic function; three independent experiments; methods in the supplement

Chain of OsFH15 FH2 (truncated recombinant protein containing the FH2 domain of OsFH15) (Q69MT2 340-768): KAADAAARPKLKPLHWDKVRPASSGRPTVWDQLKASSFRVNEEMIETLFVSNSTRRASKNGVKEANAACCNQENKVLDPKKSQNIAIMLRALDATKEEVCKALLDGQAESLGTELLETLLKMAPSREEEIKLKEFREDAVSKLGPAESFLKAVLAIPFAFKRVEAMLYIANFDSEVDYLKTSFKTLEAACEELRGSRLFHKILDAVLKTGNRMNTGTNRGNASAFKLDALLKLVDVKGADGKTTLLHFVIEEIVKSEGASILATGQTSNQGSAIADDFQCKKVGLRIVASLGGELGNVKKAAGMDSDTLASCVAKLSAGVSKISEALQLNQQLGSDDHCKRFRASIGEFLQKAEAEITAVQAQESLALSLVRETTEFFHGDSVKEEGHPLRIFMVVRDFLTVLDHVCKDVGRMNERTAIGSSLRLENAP

| Kd [1] [nM] | Kd [2] [nM] | Substance |
| --- | --- | --- |
| 1810 | – | OsFH15 FH2 (truncated recombinant protein containing the FH2 domain of OsFH15) (from UniProt Q69MT2 340-768) (domain or fragment) |
| 1020 | 820 | OsFH15 FH1FH2 (truncated recombinant protein containing the FH1FH2 domain of OsFH15) (domain or fragment) |
